The record followed here is PMC12643800.

As a reminder, the stoichiometry N is the number of molecules, sites or subunits per partner or assembly.

Assay [1] has as its target Escherichia coli L-asparaginase II (AsnB) expressed in and secreted from Corynebacterium glutamicum (E. coli K-12) (UniProt P00805). Kind of assay: SEC; Superdex 200 Increase 10/300 GL on FPLC, 0.5 ml/min, 150 ug protein loaded; molecular mass from a calibration curve with carbonic anhydrase, ovalbumin, conalbumin and aldolase; proteins loaded individually. On the technique in general: Size exclusion chromatography separates by hydrodynamic size, large species first.

Assay [2] addresses commercially available asparaginase Ec-AsnB (MEDAC, Germany) (E. coli) (UniProt P00805). The description is as above.

“Escherichia coli L-asparaginase II (AsnB) expressed in and secreted from Corynebacterium glutamicum (from UniProt P00805 23-348) (enzyme)”: the stoichiometry N in assay [1] was determined as 4.

The substance “commercially available asparaginase Ec-AsnB (MEDAC, Germany) (from UniProt P00805 23-348) (enzyme)” gave a stoichiometry N in assay [2] of 4.
